Test results: article PMC4899722

Legend:
[1] = target: ASIC1a-2a-1a concatamer (rat) (UniProt P55926)
[2] = target: ASIC1a-2a-2a concatamer (rat) (UniProt P55926)
[3] = target: heteromeric ASIC1a/2a (oocytes co-expressing ASIC1a and ASIC2a) (rat) (UniProt P55926)

“psalmotoxin 1 (PcTx1) (from UniProt P60514 1-40) (peptide)” showed a current left after 50 nM PcTx1 in the conditioning solution (pH 6.95), activation with pH 4.0, two-electrode voltage clamp in Xenopus oocytes; percent of the first current amplitude [1] of 15.7%, a current left after 50 nM PcTx1 in the conditioning solution (pH 6.95), activation with pH 4.0, two-electrode voltage clamp in Xenopus oocytes; percent of the first current amplitude [2] of 64.8% and a current left after 50 nM PcTx1 in the conditioning solution (pH 6.95), activation with pH 4.0, two-electrode voltage clamp in Xenopus oocytes; percent of the first current amplitude [3] of 66.5%.
